Data set [1] deals with S463P ERα ligand-binding domain (LBD). The data set is described as follows: FRET or BRET; time-resolved FRET of dimer exchange: 2 nM ER-LBD labelled at C417 (biotin, streptavidin-terbium) mixed with 10 nM ER-LBD labelled at C530 (fluorescein); apo or exposed to 1 μM E2 for 30 minutes before mixing; signal followed with time.
Data set [2] concerns the molecule itself. The data set is described as follows: cell-based or functional assay.
Data set [3] concerns the target T1, S463P ERα ligand-binding domain (LBD).
T1 chain: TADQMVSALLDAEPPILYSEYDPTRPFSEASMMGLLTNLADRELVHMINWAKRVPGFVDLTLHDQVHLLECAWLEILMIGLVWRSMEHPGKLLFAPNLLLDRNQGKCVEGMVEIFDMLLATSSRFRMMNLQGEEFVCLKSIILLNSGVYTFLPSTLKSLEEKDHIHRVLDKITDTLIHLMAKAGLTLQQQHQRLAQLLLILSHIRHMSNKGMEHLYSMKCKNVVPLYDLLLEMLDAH
The data set is described as follows: tr-FRET dimer exchange. Conditions: chain shown with the change.

Where a chain is given by its changes, count along the chain named. In names and notes the source's numbering stands.

In data set [1], “S463P ERα ligand-binding domain (LBD) (domain or fragment)” gave a fold slower dissociation of dimers into monomers against WT ER, absence of E2 of 7.6 times.

B1: HA-tagged ERα S463P (receptor, UniProt P03372 1-595, looked up)
chain: MTMTLHTKASGMALLHQIQGNELEPLNRPQLKIPLERPLGEVYLDSSKPAVYNYPEGAAYEFNAAAAANAQVYGQTGLPYGPGSEAAAFGSNGLGGFPPLNSVSPSPLMLLHPPPQLSPFLQPHGQQVPYYLENEPSGYTVREAGPPAFYRPNSDNRRQGGRERLASTNDKGSMAMESAKETRYCAVCNDYASGYHYGVWSCEGCKAFFKRSIQGHNDYMCPATNQCTIDKNRRKSCQACRLRKCYEVGMMKGGIRKDRRGGRMLKHKRQRDDGEGRGEVGSAGDMRAANLWPSPLMIKRSKKNSLALSLTADQMVSALLDAEPPILYSEYDPTRPFSEASMMGLLTNLADRELVHMINWAKRVPGFVDLTLHDQVHLLECAWLEILMIGLVWRSMEHPGKLLFAPNLLLDRNQGKCVEGMVEIFDMLLATSSRFRMMNLQGEEFVCLKSIILLNSGVYTFLPSTLKSLEEKDHIHRVLDKITDTLIHLMAKAGLTLQQQHQRLAQLLLILSHIRHMSNKGMEHLYSMKCKNVVPLYDLLLEMLDAHRLHAPTSRGGASVEETDQSHLATAGSTSSHSLQKYYITGEAEGFPATV
As for B1, in data set [2], the “estrogen-independent expression of GREB1 (RT-qPCR, fold change relative to WT), SKBR3 cells” value is 2.9 fold and the “estrogen-independent expression of PGR (RT-qPCR, fold change relative to WT), SKBR3 cells” value is 7.1 fold.

B2: HA-ERα A430K/S463P double mutant (receptor, UniProt P03372 1-595, looked up)
chain: B1 chain with A430K
Regarding B2, in data set [2], the “estrogen-independent expression of GREB1 (RT-qPCR, fold change relative to WT), SKBR3 cells” value was 0.4 fold and the “estrogen-independent expression of PGR (RT-qPCR, fold change relative to WT), SKBR3 cells” value came out at 0.2 fold.

B3: WT ERα ligand-binding domain (LBD) S463P (protein)
chain: T1 chain
Take B3: the other: t1/2 of dimer exchange in data set [3] (apo (no E2), parent: 7) was determined as 53 min; in data set [3] (protein exposed to 1 μM E2 for 30 minutes before dimer exchange, parent: 101), 190 min.
